From article PMC5340921

Target: T1, PPR10 (maize, UniProt B8Y6I0 38-786)
T1 sequence: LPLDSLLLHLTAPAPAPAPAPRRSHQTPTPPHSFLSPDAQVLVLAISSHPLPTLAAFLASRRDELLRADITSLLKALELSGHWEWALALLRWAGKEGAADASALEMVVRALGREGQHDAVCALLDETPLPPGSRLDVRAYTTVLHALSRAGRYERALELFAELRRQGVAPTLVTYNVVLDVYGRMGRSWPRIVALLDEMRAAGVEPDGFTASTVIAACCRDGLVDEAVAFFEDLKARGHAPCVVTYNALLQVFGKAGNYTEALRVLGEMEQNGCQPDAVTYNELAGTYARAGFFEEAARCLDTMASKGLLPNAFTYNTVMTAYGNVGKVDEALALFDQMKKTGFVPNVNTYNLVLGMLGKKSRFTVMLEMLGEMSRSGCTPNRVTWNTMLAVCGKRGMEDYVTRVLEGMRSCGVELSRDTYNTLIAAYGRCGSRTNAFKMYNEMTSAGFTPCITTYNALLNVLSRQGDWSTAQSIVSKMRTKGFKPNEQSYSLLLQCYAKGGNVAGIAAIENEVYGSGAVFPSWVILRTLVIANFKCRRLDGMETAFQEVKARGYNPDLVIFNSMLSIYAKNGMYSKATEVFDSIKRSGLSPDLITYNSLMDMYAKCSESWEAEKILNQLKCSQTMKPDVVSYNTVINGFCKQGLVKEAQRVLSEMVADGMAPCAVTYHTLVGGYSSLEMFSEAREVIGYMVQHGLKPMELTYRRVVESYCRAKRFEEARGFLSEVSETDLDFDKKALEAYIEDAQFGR
Assay: EMSA

B1: atpH WT 17-mer (ssRNA)
RNA: GUAUCCUUAACCAUUUC
B1: binds.
